Measured values published in the DeepSol protein solubility set.

Experiment: soluble on expression in E. coli; label from the status in PepcDB or PDB records

Sequence	soluble on expression in E. coli
MGSDKIHHHHHHMLTLANVALLSQLALQQPGETDKKPEDCSFEQIEFTINFAVGRLNHCEKTGDNQYKLFLEPEREKINPSPWYAFAVKNKTETSQTIDITLVASEGVSRYKPKRSEGDDIWHAIPFSEGDGTLQFELTLSGQTKEYIAGQEIIDNVHYIEWLSSLIKEPQQTEVISLGVSSEGRNLAALEHRVESSDKWIILIGRQHPPEVTGALALLHFGELLFSDEPYVVKFRQKYNILLVPNMNPDGVYHGNWRLTAAGIDMNRDWKNLTLPETQAMANYLKKLVKDGGKIEFAIDFHSTRKNVFYTMPEDYEPRSGVPLRNPQRVYNWIEEIEELVGSVELDYQPGAHPESGVFKQFIADEFAAHAVTYEVSDNEERNNIKKVAEAALISLINRLD	not soluble
MGSDKIHHHHHHMLVTELNIYPLKSARGIALKESAVSAEGLPGDRRAMLTDPSGHFITQRELPAIATVLARHEDGGMALSRERSGEIFARPSGQRMDVAVWKSIVSANIADDETNDTLSAWLGREVKLVFFDDAAKRIASLEWTGNETPVTFADGYQILVTTTASLAALNDNMRGNGEDAVGMERFRPNIVLETEEAWAEDRWAAIEIGGIRFDLVKPCARCIMTTQDQMTGSRDVPSPMKAMGRIRMSGDRRVPGPLFGWNVTPRGEGRLSVGDVARVVEERPEGWAIKRR	not soluble
MGSDKIHHHHHHMLYADENSFDIGAKITKTKPVLLPIGAVEAHGPHLPLGTDNILASEYSAKIAAETSGFVLPVLPYGQVWSLQDFPGSLTLSNETVTKVVVEIGESLYKQGFRLFVPVSGHLGNMAALKDAARELYAKYPDMVILHIFYPNIQKLAMDVREGNANHHTYIHACEIETSLMLYLSPENADMSRAIDDPPILPIDADFTPTPWQNFTKTAVLGEATLATAEKGEYLIEKTLKTCVELIKLEQEKIRKSTEME	not soluble
MGSDKIHHHHHHMMAQFEYSTLAHPQDIQQLEHILEQCFISALGGEEAYINMIGVENFRIIRRLEQVAGGLATLDMGQWWGGQRVPMTGIAVVGIAPEYRGSGAAIALMQHTLKELYDRGIAISALYPAVQSLYRKVGYEQGGSWCIWEIATQNIQVREQPLPLELVASINHEVFHELYQQQARQTHGYLDRHPAIWERIIQPNDKEIVYTYLIGTKDQPQGYIIFTQERTNNGEILFVKDWVLTTVAAAQTFWSFLASHRSQIQQVRWKSSAIDSLTLLLPEQTAKIQTTSRWLLRIIDVVKALELRGYPPGIQAELHLEIQDNLLTENNGKFILSVANGRGEVTKGGKGELQLDIRELAPLYTSLFTPYHLQIAGKLNGTETAILTATQIFAGASPWMADFF	not soluble
MGSDKIHHHHHHMMDFDFLEGKRLTEDVALDETMVWNEDIEMLDLHLVATSALIGVVHRVSYELLSRYLPNDYTAVVVETLARHVKAVPTGTRVAVGVRVVGVVGNRVKFRGIVMSGDEKILEAEFVRAIVPREKLRRLALEKAEKTSRLFGI	soluble
MGSDKIHHHHHHMMDMLMSTPNYNASLLAMATAALNALDSSHAGAAHATEAQQSHFLCNWMAQALKDKSFDKAIAGELTLWVRQGRSMGSSAQLKRLLQTIRHQYSTLAEHTMGLGNALAKMLEDARQQDVIVYTDTPVKTKLKLDADGQSSIIVCADEYQQHIRDGELIKPISLFVRADEKFLAKLAFSHGLMLTQGDKKSSLIKHHKSYKLFPKNQLPSLALLTFH	not soluble
MGSDKIHHHHHHMMELLNVNNLKVEFHRVEGIVKAVDGISYKLNKGESLGIVGESGSGKSVSVLSLLRLINRNGRIVDGEAIFLGKDLLKLNKEELRNIRGKDISIIFQNPMTSLNPIIRVGIQVMEPIIWHRLMKNEEARERAIELLERVGIPESPKRFLNYPFQFSGGMRQRVMIAMALACHPKLLIADEPTTALDVTIQAQIMELLQELKEEYGMSVIFITHDLSVATNFCDRIITMYAGKIVEEAPVEEILKTPLHPYTKGLLNSTLEIGSRGKKLVPIPGNPPNPTKHPSGCKFHPRCSFAMEICQREEPPLVNISENHRVACHLIKGESK	not soluble
MGSDKIHHHHHHMMENSLNIIEKMNPNQKINYDRVFQKVRESWERDSVRPKILLHSCCAPCSTYSLEYLTQSADVTIYFANSNIHPSTEYTRRKMVQEQFVKDFNERTGNNVQFIAAEYEPNVFLQMVRQKHLENEPEGGKRCTSCFEMRLDIVAEKALELGFDYFGSALTLSPKKNSQLINEIGLDIQKIYDVNYLPSDFKKNNGYKRSVEMCKEYDVYRQCYCGCIFAAKAQGIDLKEQNREAIKFIRNQS	not soluble
MGSDKIHHHHHHMMEYWIRRALEVVKTPFLLFDLSVVEKKYLEMKAALKKADIYYAVKANSHPRIISLLARLGSNFDVASKGEIEKLLALGVDGKRMSFGNTIKREEDIAFAYKNGIRLFAVDSEMEVEKVAINAPGSFVFVRVETDGADADWPLSRKFGTNPEHALQLLSYASKMKLIPAGLSFHVGSQNLNPESWKKAIEIAGRVFKKAMRSGLNLFLLNVGGGFPVQHTKPIPSMEEIGKAIEEAIDENLWFVHNLKVIAEPGRYMVGEAGWLVTKVLLKSERSGEKWVYIDAGVFHGLAETIQNFEYEIRVLGKEREELEEYHLAGPTCDSVDVIYDRIFLPKSITLNDLVCFINAGAYTVEYNTRFNGIEPPKMVFIEELTEISIEEKIKTRVLD	not soluble
MGSDKIHHHHHHMMGGEFTLTEREAEYLFRIIDSSINIFRRHQFFLWAQGELQGLLPHGMLICLFDEGNGQAVNIERFSRTDMDEIRFSELCRPDGGIVFRAMSAWSAGKNQPLLVCPNNSHTPTYKRFSNDLKRENLQRIAAHGMFDTNGRTTCFFTFTQISAALSERHAYFLELLMPHMHMALVRMLFHERHHKQGAVGERSRKLITDRETEILRHVQAGKSNHEIAQLLYISPLTVKNHIQKILKKLDVNNRAHAVAKAMALKITL	not soluble
MGSDKIHHHHHHMMGKTEYLDYYSGKRVLVTGGAGAVGSNLVRRLLDLGAFVIVIDNLSSGYTWLLPQDAPNLLFIEGDITNDVDLKRVFNEEPEIIFHLAAFFANQNSVDYPEKDLWVNGFGTLKLLEYTRIYGKVERFVYASSGCSIYPSDAPMPFKEDLPISSWMSTPYQITKALGELYCNYFYKMYDIPITKARFFNSFGPGEVPGQYRNVIPNFIYWAMLGKPLPITGTGEETRDFTYVGDIVDGLLRMGYYREAIGEAFNLAAGREVKIKYLAEKVNELTGNTAGIVFKPRRKWDTKPRMLASNEKAKKVLGFNPDPDFDGRLAETVEWFKQNWELIKKSAEFGPGVSSAVR	not soluble
MGSDKIHHHHHHMMIDTPAVLIDRERLTANISRMAAHAGAHEIALRPHVKTHKIIEIAQMQVDAGARGITCATIGEAEIFAGAGFTDIFIAYPLYLTDHAVQRLNAIPGEISIGVDSVEMAQATAGLREDIKALIEVDSGHRRSGVTATASELSQIREALGSRYAGVFTFPGHSYGPGNGEQAAADELQALNNSVQRLAGGLTSGGSSPSAQFTDAIDEMRPGVYVFNDSQQITSGACTEKQVAMTVLSTVVSRNVSDRRIILDAGSKILSTDKPAWIDGNGFVLGNPEARISALSEHHATIFWPDKVLLPVIGEQLNIVPNHACNVINLVDEVYVREADGTFRTWKVVARGRNN	not soluble
MGSDKIHHHHHHMMKMAEFIMVVGTSSNSGKTTITAGLCRILANKGYKVAPFKSQNMSLNSRVAKEDGEIAIAQYTQSLACRVEPSVHFNPILLKPKGNFISQVIVHGRPYKDMNYNEYRKNKDFFLKKIKESLEILDREYDYVIMEGAGSCCEINLLKDDIANLRIAELVNAKAILVADIDRGGVFASIYGTIKLLPENWRKLIKGIIINKFRGNVEVLKEGIEKIEELTGIPVLGIVPYDENLVLPEEDSQVLQSMRSFGNAKSGVEINVVRFSKISNFTDLDPLRYDAFIKFIDFDDDITGDILIFPGTRSSTKEAYYLKQHNFDEKVLEFLKDGGIVIGICGGYQVLGKELIDKEKKESDVGDIEGLKIFDAKTYFGNDKVVKNSCGFLEIDNKTFNVKGYEIHEGFTYSKEKPLIKIERGFGNCGNGFDGSIKKFGDGLAIGTYFHGIFENYEFRNYIINLIRKRKGLDEIYGDSYKDSIEKSLNYFAEVVERSVNLKPLGINAT	not soluble
MGSDKIHHHHHHMMNIPPFINTIIGQQPYPLLFAIISGSHLYGFPSPDSDYDLRGVHILPVEEVVGLETGNETIEVSEIREALEIDLVTHDVKKFFLMLLKKNGYVLEQLYSPLVLTTSPEAEELKFIAKGCITRNHYYHYIGFAATQWKLFENERTYRLKPLLYVYRVLLTGIYLMQTGIVEANLMKLNEVFNLPYIHDLITQKIAGKEKSVVSNVNVDFHQIEYERLRHKLQEVYESSRLPEVPSANAALHNLLVRLRTNVKLRK	not soluble
MGSDKIHHHHHHMMQIYLVGGAVRDQLLGLPIKDRDWLVVGSTAEELLSQGYQQVGKDFPVFLNPNTREEYALARTERKSGTGYTGFICDFNPDITLEQDLMRRDLTINAIAQDMAGQYHDPYNGIADLKKGILRHISPAFAEDPLRVLRVARFAARYHQLGFKIAPNTLALMKKIANNGELRQLSPERVWQETEKALHEQDPQVYFAILQKIDALKVLCPEISVFNSDSIQYRSDMTDFVHAMPILKQTTLLTEKTDYHKSAVRFAALCHDVGKALSTANIPPYSHDNKITSIAYLRNVCQRFKVPNYVQELAELTCQYHSHIHHALALHTKTILTLFNKLDVWRKPKRFEELMLVCLADSLTQTEMNYTDYPQYKFLLCLYQAALAVDVQQIISEGFQHKAIRVELDRRREIAIQIKKQQFIEQNLT	not soluble
MGSDKIHHHHHHMMSGHNKWANIKHRKMAQDAKKSKIFTKLIREIIVAAREGGGNIETNPRLRAAVERARAENMPKENIERAIKRGTGELEGVDYQEVIYEGYAPGGVAVYIRALTDNKNRTAQELRHLFNKYGGSLAESGSVSWIFERKGVIEISRDKVKDLEELMMIAIDAGAEDIKDAEDPIQIITAPENLSEVKSKLEEAGYEVEAKVTFIPKNTVKVTGKDAEKVLEFLNALEDMDDVQEVYSNFEMDDKEMEEILSRLEG	not soluble
MGSDKIHHHHHHMMSWADKYRPKNIDDVILNSEIRKQITEWIESWKEGIPKKRSLILYGSQGTGKTTTAYAIAGTFGVPVVEMNASDQRNRDSMRGTALMASLYGDLFVESAKRPSKVILIDEADNMFERGGDTGGIYELSKIIKNSANPIVITMNDIFEFRKKNYASDVISASLTIEMKQYGRKLDKNYNEFRRNIKARLIFILKNEGYTLPDQVVDRIIDRNMPDIRSMINDLEASAVSGTNISDQSSRDVPEIVYYMVDKAFKRNYDDTLRSIYGSDIDDSYYVSWIDENLPLKTVDLQDLVSAYEVISYADHILWAMERRRHYELMAFPMEIAGGVAYYIENMKHEYVKYQSPSYISQMSKTKEKRHAMMSLALKIGLLIHMGAQRTSEDLWFYSLLYQHNEKLRTFFEEKLNLTQGEENVLTRSE	not soluble
MGSDKIHHHHHHMMTQLSAPTLTKDPLTTQDRQIIATIVNQSDYSKNCKPEDVVTIWISEDDTTVWVKMIHGYARYHKQSFKRAVAEVKASLSAPVKCNHKEERELKQAAEKIGLLGDCDWLSLSVQYYPDKVIGHAGCYTSQKPQLLTPLAEWDFTLPKWNMPAAICPDCGGHGCGNCGYRGTRAEDLCKPVDGYRLTYVGRTDLQTAHNVYLDGEFLGILFKVRNADELWENDPKTYYWRCGDGVRYWSVKEAVEVLSRTTAPIELPQVCRELVAA	not soluble
